B1: library; numbered along this chain (parent)
chain: MRKPRAAVGSGHRKQAASQEGRQKHAKNNSQAKPSACDGLARQPEEVVLQASVSSYHLFRDVAEVTAFRGSLLSWYDQEKRDLPWRRRAEDEMDLDRRAYAVWVSEVMLQQTQVATVINYYTGWMQKWPTLQDLASASLEEVNQLWAGLGYYSRGRRLQEGARKVVEELGGHMPRTAETLQQLLPGVGRYTAGAIASIAFGQATGVVDGNVARVLCRVRAIGADPSSTLVSQQLWGLAQQLVDPARPGDFNQAAMELGATVCTPQRPLCSQCPVESLCRARQRVEQEQLLASGSLSGSPDVEECAPNTGQCHLCLPPSEPWDQTLGVVNFPRKASRKPPREESSATCVLEQPGALGAQILLVQRPNSGLLAGLWEFPSVTWEPSEQLQRKALLQELQRWAGPLPATHLRHLGEVVHTFSHIKLTYQVYGLALEGQTPVTTVPPGARWLTQEEFHTAAVSTAMKKVFRVYQGQQPGTCMGSKRSQVSSPCSRKKPRMGQQVLDNFFRSHISTDAHSLNSAAQ

Variants of: B1
Assay: 8OG:A repair function score (normalized; synonymous = 0, nonsense = -1) (normalized log-likelihood score); higher = more repair activity (WT-like)
Details: with 8OG:A DNA repair reporter (GFP) in HEK-293 MUTYH KO cells
Description: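 Saturation mutagenesis (NNN codon scan) of the MUTYH cDNA (521-aa nuclear isoform NM_001048174.1 / NP_001041639), stably expressed under doxycycline induction in HEK-293 MUTYH knockout cells. Cells were co-transfected with an 8OG:A-bearing GFP repair reporter plus mCherry and sorted 72 h later into GFP+ and GFP− bins, three replicates per tile. The Rosace log2 enrichment (GFP+ vs GFP−) was converted per tile to a normalized function score with synonymous variants centered at 0 and nonsense variants (codons 1-471) at -1; low-abundance variants were removed.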

8OG:A repair function score, by site and new letter:
A36: K -0.187; F 0.0951; R -0.15; W -0.0681; M -0.076; C 0.066; D -0.0511; S -0.0113; G -0.011; H 0.146; L -0.0486; V 0.0896; Q -0.0644; N -0.0203; E 0.00159; T 0.118; I -0.0893; P 0.00994
L40: W 0.123; H 0.00147; R 0.0698; M 0.227; G 0.0939; F 0.134; E 0.0138; N 0.042; P 0.00594; Y 0.179; D 0.21; A 0.139; S 0.073; V 0.0896; T 0.087; Q 0.0733; K 0.127; I -0.0464; C -0.0146
P34: L 0.131; E 0.0965; N 0.0767; H 0.142; T -0.0245; D 0.128; Q 0.146; I -0.0342; R 0.0769; S 0.0874; C 0.0156; G -0.0669; M 0.176; W 0.133; V -0.0896; A -0.039; K 0.166
R2: Q -0.0466; W -0.00849; A -0.0711; S 0.049; F 0.0866; P -0.00444; N 0.108; L -0.084; G 0.122; M -0.169; Y -0.155; C -0.529; H -0.00678; I 0.124; K 0.125; D -0.112; T 0.0193; V 0.0618
Q43: D 0.0131; A 0.0603; C 0.138
A6: S -0.117; V 0.0405; I -0.177; E 0.137; C -0.117; H -0.0145; D -0.15; G 0.0165; F 0.0517; K -0.0201; Q 0.0112; L 0.01; T 0.0379; Y -0.0552; R -0.0747; N -0.0265; M -0.168; P -0.0227
K3: W -0.0484; A 0.108; F 0.00169; L 0.0859; M -0.238; E -0.174; Q 0.107; N 0.00918; C -0.0701; R -0.0184; H 0.0273; G 0.00287; V -0.0444; D -0.233; I -0.161; T 0.144; S -0.0766; Y 0.137; P 0.0268
A41: Q 0.168; R 0.0859; E -0.0689; N 0.0813; T 0.0139; Y -0.107; K -0.0537; G -0.0656; H -0.0884; W -0.0976; I 0.0909; V -0.0754; F 0.0355; M -0.0227; L -0.0575; S -0.048; C -0.0569; D -0.0561; P 0.00904
G39: I -0.0353; S 0.0658; L 0.0565; H -0.44; Y -0.0346; F 0.045; D 0.118; C -0.0254; P 0.0274; M 0.24; A 0.101; E 0.0199; V 0.0274; K 0.121; R 0.0558; N 0.241; T 0.103
R42: Q 0.102; G 0.0112; L -0.0705; I -0.00552; K 0.0776; N 0.0413; V 0.0781; T -0.0609; C 0.0324; Y 0.0172; F 0.00894; E 0.021; P -0.176; A 0.112; M -0.196; D 0.0284; H 0.0289; W 0.0271; S 0.0235
